Results from US6399747 (Amgen, dated 2002).

T1: mPAL cDNA clone from the yeast two-hybrid screen, fused to the GAL4 transcription activation domain (yeast; mouse, UniProt Q9Z179 16-668)
T1 construct: Eleven clones were isolated (3 from T-cell, 8 from embryo library); As an in-frame fusion it may start at residue 11; also called GAL4-cDNA fusion; GAL4-TA fusion
T1 sequence: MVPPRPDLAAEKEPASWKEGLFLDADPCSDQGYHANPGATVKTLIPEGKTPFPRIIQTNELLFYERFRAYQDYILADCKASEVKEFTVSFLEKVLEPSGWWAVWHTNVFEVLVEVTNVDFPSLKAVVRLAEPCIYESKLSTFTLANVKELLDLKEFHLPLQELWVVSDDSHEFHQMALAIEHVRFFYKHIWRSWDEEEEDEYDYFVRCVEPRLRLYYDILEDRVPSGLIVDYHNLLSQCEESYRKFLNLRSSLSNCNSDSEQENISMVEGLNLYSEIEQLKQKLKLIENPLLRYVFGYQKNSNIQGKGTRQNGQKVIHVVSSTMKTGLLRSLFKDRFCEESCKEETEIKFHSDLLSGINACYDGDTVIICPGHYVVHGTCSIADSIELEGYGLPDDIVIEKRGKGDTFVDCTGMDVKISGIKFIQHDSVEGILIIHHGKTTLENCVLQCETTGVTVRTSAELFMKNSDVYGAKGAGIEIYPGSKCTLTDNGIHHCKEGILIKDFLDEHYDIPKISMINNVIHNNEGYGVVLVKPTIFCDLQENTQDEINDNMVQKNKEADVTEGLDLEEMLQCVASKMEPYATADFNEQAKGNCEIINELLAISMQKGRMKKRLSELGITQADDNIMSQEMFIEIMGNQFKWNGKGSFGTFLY

T2: mPAL (amino acids 11 to 648) expressed in 293T cells from pcDNA3.1-mPAL (mouse, UniProt Q9Z179 11-648)
T2 sequence: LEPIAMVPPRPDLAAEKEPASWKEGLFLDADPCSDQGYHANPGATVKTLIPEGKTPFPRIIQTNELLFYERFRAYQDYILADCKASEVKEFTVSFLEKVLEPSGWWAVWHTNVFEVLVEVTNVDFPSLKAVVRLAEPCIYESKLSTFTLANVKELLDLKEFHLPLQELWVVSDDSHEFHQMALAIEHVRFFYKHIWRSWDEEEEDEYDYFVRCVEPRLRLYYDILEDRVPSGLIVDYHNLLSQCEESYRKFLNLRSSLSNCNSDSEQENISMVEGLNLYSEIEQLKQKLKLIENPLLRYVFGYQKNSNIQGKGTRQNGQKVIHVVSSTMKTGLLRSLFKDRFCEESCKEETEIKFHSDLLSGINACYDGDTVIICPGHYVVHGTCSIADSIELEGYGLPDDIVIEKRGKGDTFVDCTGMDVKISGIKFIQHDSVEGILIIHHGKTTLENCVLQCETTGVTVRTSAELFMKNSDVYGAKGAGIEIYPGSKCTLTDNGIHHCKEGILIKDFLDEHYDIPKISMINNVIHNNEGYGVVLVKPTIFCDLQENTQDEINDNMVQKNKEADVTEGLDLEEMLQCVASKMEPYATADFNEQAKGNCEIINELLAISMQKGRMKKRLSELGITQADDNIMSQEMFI


Columns and labels:
[1] = biological target: T1, mPAL cDNA clone from the yeast …; experiment: yeast two-hybrid
[2] = biological target: T2, mPAL (amino acids 11 to 648) expressed …; experiment: GST pull-down from 293T-mPAL lysate, anti-mPAL immunoblot
Experimental: To examine the specificity of the mPAL-Shc SH2 interaction, a series of GST-SH2 fusion proteins generated from several signal transduction molecules were tested for their ability to precipitate mPAL. A panel of GST-SH2 fusion proteins generated from several signal transduction molecules (Shc PTB domain, Blaikie et al., *J. Biol. Chem.* 269:23031–32034(1994), Shc SH2 domain, Pellici et al., *Cell* 70:93–104 (1992), Grb2 SH2 domain, Rozakis-Adcock et al., *Nature* 360:689–692 (1992), Vav SH2 domain Margolis et al., *Nature* 356: 71–74 (1992), N-terminal SH2 domain of ras-GAP, N-terminal SH2 domain (p85-N) and C-terminal SH2 domain (p85-C) of p85 subunit of PI-3 kinase, N-terminal SH2 domain (PLCγ-N), and C-terminal SH2 domain (PLCγ-C) of phospholipase C-γ1 Anderson et al., *Science* 250:979–982 (1992), Ellis et al., *Mol. Cell Biol.* 12:991–997(1992), and Nck SH2 domain, Lehman et al., *Nucl. Acids Res.* 18:1048 (1990), were immobilized on glutathione-Sepharose beads.

Row | binding result [1] | binding result [2] | Binder
1 | no binding | – | CH1 domain of p52 Shc (yeast two-hybrid construct) (other, UniProt P29353-2 230-377, looked up, domain: CH1; Construct is not described) EEEEPPDHQYYNDFPGKEPPLGGVVDMRLREGAAPGAARPTAPNAQTPSHLGATLPVGQPVGGDPEVRKQMPPPPPCPGRELFDDPSYVNVQNLDKARQAVGGAGPPNPAINGSAPRDLFDMKPFEDALRVPPPPQSVSMAEQLRGEP
2 | no binding | – | PTB domain of p52 Shc (yeast two-hybrid construct) (other, UniProt P29353-2 1-209, looked up, domain: PTB; Construct is not described) MNKLSGGGGRRTRVEGGQLGGEEWTRHGSFVNKPTRGWLHPNDKVMGPGVSYLVRYMGCVEVLQSMRALDFNTRTQVTREAISLVCEAVPGAKGATRRRKPCSRPLSSILGRSNLKFAGMPITLTVSTSSLNLMAADCKQIIANHHMQSISFASGGDPDTAEYVAYVAKDPVNQRACHILECPEGLAQDVISTIGQAFELRFKQYLRNP
3 | – | no binding | GST-Nck SH2 (amino acids 281-377 of human Nck) (other, UniProt P16333 281-377, looked up, range 281-377; not shown: glutathione S-transferase (GST)) PWYYGKVTRHQAEMALNERGHEGDFLIRDSESSPNDFSVSLKAQGKNKHFKVQLKETVYCIGQRKFSTMEELVEHYKKAPIFTSEQGEKLYLVKHLS
